Test results: patent US20240101645A1 (HENRY M JACKSON FOUNDATION FOR THE ADVANCEMENT OF MILITARY …, published 2024)
Changes are numbered by the printed parent chain.

T1: HCoV-229E spike antigens (bead panel) (HCoV-229E, UniProt P15423 16-1115)
T1 sequence: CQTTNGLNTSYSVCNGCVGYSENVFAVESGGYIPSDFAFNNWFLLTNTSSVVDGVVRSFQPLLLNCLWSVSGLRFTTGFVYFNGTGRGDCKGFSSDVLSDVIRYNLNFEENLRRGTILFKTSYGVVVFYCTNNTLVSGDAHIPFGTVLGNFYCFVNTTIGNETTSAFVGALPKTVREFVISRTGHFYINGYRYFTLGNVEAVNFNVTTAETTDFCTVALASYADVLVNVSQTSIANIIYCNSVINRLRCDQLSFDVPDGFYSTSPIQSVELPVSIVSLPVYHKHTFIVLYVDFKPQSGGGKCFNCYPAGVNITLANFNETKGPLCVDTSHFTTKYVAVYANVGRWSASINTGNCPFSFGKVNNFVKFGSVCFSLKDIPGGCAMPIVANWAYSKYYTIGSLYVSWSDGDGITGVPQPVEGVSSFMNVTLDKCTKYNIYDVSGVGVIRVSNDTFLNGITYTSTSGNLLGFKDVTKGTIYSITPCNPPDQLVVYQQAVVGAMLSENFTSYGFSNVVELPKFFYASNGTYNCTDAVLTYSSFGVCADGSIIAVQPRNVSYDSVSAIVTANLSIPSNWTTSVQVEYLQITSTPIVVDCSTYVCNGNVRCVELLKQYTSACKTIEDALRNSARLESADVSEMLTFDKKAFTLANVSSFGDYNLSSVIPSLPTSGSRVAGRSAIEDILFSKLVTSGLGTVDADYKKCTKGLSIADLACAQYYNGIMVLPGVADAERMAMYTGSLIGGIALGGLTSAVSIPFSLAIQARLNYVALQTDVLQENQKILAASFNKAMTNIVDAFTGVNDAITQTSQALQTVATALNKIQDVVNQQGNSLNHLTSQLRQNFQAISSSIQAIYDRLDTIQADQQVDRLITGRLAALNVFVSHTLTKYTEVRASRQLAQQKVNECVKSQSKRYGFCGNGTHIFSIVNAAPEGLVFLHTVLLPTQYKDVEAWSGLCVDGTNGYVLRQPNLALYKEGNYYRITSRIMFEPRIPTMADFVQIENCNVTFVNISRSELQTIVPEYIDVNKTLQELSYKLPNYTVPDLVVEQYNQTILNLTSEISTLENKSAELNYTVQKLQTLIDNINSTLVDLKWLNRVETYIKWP

T2: HCoV-HKU1 spike antigens (bead panel) (HCoV-HKU1, UniProt Q5MQD0 13-1300)
T2 sequence: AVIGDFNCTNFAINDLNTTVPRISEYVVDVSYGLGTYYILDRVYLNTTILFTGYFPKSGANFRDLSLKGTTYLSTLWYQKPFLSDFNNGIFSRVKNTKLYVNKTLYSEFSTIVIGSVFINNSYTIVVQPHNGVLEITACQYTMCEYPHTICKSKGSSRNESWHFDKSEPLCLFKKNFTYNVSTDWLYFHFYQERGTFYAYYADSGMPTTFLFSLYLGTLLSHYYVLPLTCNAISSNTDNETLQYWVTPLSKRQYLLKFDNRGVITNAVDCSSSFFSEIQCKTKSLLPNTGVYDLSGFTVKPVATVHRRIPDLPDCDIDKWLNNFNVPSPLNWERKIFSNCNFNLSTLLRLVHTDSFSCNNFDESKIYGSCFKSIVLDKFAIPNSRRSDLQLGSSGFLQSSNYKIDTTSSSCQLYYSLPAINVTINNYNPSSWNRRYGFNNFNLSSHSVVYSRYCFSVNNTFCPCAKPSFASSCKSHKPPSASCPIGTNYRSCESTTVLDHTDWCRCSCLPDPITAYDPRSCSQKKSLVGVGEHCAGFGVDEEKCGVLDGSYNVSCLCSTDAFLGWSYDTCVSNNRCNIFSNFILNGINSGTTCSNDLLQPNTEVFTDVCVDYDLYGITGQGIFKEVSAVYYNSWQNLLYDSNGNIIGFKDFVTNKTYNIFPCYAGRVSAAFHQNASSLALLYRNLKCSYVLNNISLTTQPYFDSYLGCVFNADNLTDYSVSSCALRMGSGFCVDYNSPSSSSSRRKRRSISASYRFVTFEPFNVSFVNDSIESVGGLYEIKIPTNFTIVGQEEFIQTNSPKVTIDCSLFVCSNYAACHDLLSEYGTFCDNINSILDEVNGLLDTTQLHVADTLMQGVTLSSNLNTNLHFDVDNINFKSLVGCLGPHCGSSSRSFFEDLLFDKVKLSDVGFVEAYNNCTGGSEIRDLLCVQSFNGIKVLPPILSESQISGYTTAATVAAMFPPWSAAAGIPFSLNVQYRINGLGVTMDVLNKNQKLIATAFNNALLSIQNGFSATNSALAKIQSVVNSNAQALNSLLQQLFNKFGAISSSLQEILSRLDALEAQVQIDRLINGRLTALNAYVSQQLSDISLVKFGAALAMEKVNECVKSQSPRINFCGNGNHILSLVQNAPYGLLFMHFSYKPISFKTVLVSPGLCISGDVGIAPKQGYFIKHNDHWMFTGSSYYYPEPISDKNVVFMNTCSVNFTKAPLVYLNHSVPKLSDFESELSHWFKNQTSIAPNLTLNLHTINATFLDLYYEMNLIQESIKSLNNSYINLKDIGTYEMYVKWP

B1: COV_2125 (antibody, V domains shown)
VH: EVQLVESGGGVVQPGRSLRLSCAASGFTFSSYGMHWVRQAPGKGLEWVAVISYDGSNKYYADSVKGRFTISRDNSKNTLSLQMNSLRPEDTAVYYCAKDSPYYYDSSGYYPGYFQDWGQGSLVTVSS
VL: DIQMTQSPSSLSASIGDRVTITCRASQTISDYLNWYQQKPGKAPNLLIYAASTLQSGVPSRFSGSGSGTDFTLTISSLQPEDFATYYCQQSYITPRTFGQGTKVEIK
notes: human IgG1
B2: COV_2169 (antibody, V domains shown)
VH: EVQLVESGGGVVQPGRSLRLSCAASGFTFSRYAMHWVRQAPGKGLEWVAVISYEGSNKYYADSVKGRFTISRNNSNNTLSLQMNSLRPDDTAVYYCVRSGGHYFDAFDLWGQGTMVTVSS
VL: EIVLTQSPGTLSLSPGERATLSCRASQSVSRNYVAWYQQKPGQAPRLLIYGASSRATGIPDRFSGSGSGTDFTLTISRLEPEDFALYYCQQYGSSYTFGQGTKLEIKR
notes: human IgG1
B3: COV_1145 (antibody, V domains shown)
VH: QVQLVESGGGVVQPGRSLRLSCAASGFTFSSYGMHWVRQAPGKGLEWVAVIWYDGSNKYYADSVKGRFTISRDNSKNTLYLQMNSLRVEDTAVYYCAREGQLGATGLDCWGQGTLVSVSS
VL: SYELTQPPSVSVSPGQTARITCSGDALPKKYAYWYQQKSGQAPVLVIYEDSKRPSGIPERFSGSSSGTMATLTISGAQVEDEADYYCYSTDNSGNHWVFGGGTKLTVLG
notes: human IgG1
B4: COV_2215 (antibody, V domains shown)
VH: EVQLVESGGGLVKPGGSLRLSCAASGFTFSHAWMSWVRQAPGKGLEWVGRIKSKTDGGTADYAAPVKGRFTISRDDSKNTLYLQMNSLKTEDTAVYYCATIRYYYDSSAYLNDAFDIWGQGTMVTVSS
VL: B3 VL with N92S, W97R, G100A
notes: human IgG1
B5: COV_3129 (antibody, V domains shown)
VH: QVQLQQWGAGLLKPSDTLSLTCAANGGGSFSGYYLGYIRQSPGKGLEWIGEINHNGGTNYNPSLKSRVTISGDTSKNQFSLKLSSVTAADTAIYYCARSRDSSLGDAVWYEYWGQGTLITVSS
VL: EIVLTQSPATLSLSPGERATLSCRASQSVDIYLAWYQQRPGQAPRLLISDASKRATGVPARFSGSGSGTDFTLTINSLEPEDFAIYYCQQRRDWPINFGQGTRLEIKR
notes: human IgG1
B6: COV_1154 (antibody, V domains shown)
VH: EVQLVESGGGLVKPGGSLRLSCAASGFRFSDYNMNWVRQAPGKGLEWVSYISSSSSYIYYADSVKGRFTISRDNAKNSLYLQMNSLRGEDTAVYSCAREASGAYYFDRSGYFDYWGQGTLVTVSP
VL: DIQMTQSPSTLSASVGDRVTITCRASQSISSWLAWYQQKPGKAPNLLIYKASSLESGVPSRFSGSGSGTEFTLTISSLQPYDFATYYCQQYNSYPWAFGQGTKVEMKR
notes: human IgG1
B7: COV_1184 (antibody, V domains shown)
VH: QVQLQQWGAGLLKPSETLSLTCAVYGGSFSGYYWSWIRQPPGKGLEWIGEINHSGNTTYNPSLKSRVTISVDTSKNQFSLKLSSVTAADTAVYYCARGLVITYYYDSSGKPFDPWGQGTLVTVSS
VL: not shown
notes: human IgG1
B8: COV_2205 (antibody, V domains shown)
VH: EVQLVESGGGLVKPGGSLRLSCAASGFTFSDYYMIWIRQAPGEGLEWVSYISSRSSYTNYADSVKGRFTISRDNARNSLYLQMNSLRAEDTAVYYCARGQHDLLTGYYSWAYFDYWGQGTLVTVSS
VL: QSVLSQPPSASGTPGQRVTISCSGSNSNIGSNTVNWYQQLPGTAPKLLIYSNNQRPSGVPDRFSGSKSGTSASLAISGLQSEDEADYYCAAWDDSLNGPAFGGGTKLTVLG
notes: human IgG1
B9: COV_1177 (antibody, V domains shown)
VH: QVQLVESGGGVVQPGRSLRLSCAASGFTFSSYGMHWVRQAPGKGLEWVAVIWYDGSNKYYADSVKGRFTISRDNSKNTLYLQMNSLRAEDTAVYYCARDPLGAVAGYFDYWGQGTLVTVSS
VL: SYVLTQPPSVSVAPGQTARITCGGNNIGSKSVHWYQQKPGQAPVLVVYDDSDRPSGIPERFSGSNSGNTATLTISRVEAGDEADYYCQVWDSSSDHHWVFGGGTKLTVLG
notes: human IgG1
B10: COV_3069 (antibody, V domains shown)
VH: EVQLVESGGGLVKPGGSLRLSCAASGFTFGSYTMNWVRQAPGKGLEWVSSIDTTSSSIYYADSLKGRFAISRDSAKNSLYLQMNRLRAEDTAVYYCARGNGHSYDSSGYHYGMYFDYWGQGTLVTVSS
VL: DIQMTQSPSTLSASVGDRVTITCRASQSISRWLAWYQQKPGKAPKLLIYEVSSLENGVPSRFSGSRSGTEFTLTISSLQPDDFAIYYCQQYNTYSRTFGQGTKVEIKR
notes: human IgG1
B11: COV_1201 (antibody, V domains shown)
VH: QVQLVQSGAEVKKPGASMKVSCKASGYTFTGYYIHWVRQAPGQGLEWMGRINPNSGGTNYAQKFQGRVTMTRDTSISTAYMELSRLRSDDTAVYYCAREYYYVPYGMDVWGQGTTVTVSS
VL: QSALTQPASVSGSPGQSITISCTGTSSDVGGYNFVSWYQHHPGKAPKLMIYEVSNRPSGVSNRFSGSKSGNTASLTISGLQAEDEADYYCSSYTSSSTYVFGTGTKVTVL
notes: human IgG1

How the values were obtained:
[1] = target: SARS-CoV-1 spike antigens (bead panel) (SARS-CoV-1, UniProt P59594 14-1195); experiment: multiplex bead assay
[2] = target: T1, HCoV-229E spike antigens (bead panel); experiment: multiplex bead assay
[3] = target: T2, HCoV-HKU1 spike antigens (bead panel); experiment: multiplex bead assay
[4] = target: SARS-CoV-2 S on pseudovirions (Wuhan Hu-1 / IL1/2020, last 18 amino acids removed) (SARS-CoV-2, UniProt P0DTC2 14-1273); experiment: cell-based or functional assay

Binder | binding result [1] | binding result [2] | binding result [3] | Mean IC50, pSV neutralization [4] [µg/ml] | Mean IC80, pSV neutralization [4] [µg/ml]
B1 | no binding | no binding | no binding | – | –
B2 | no binding | no binding | no binding | – | –
B3 | no binding | no binding | no binding | – | –
B4 | no binding | no binding | no binding | – | –
B5 | no binding | no binding | no binding | – | –
B6 | no binding | no binding | no binding | – | –
B7 | no binding | no binding | no binding | – | –
B8 | no binding | no binding | no binding | – | –
B9 | no binding | no binding | no binding | – | –
B10 | no binding | no binding | no binding | – | –
B11 | no binding | no binding | no binding | 0.09 | 0.3
